Holding throughout (assay): EMSA
What all share (conditions): EMSA: 10 mM Tris-HCl, 10 mM NaCl, 40 mM KCl, 1 mM MgCl2, 4 mM EDTA, 1 mM DTT, 0.5 mg/ml BSA, 5% glycerol, 2 pmol DNA in 15 ul, room temperature 15 min (pH not …)
(In general: Mobility shift assays separate free from complexed probe on a gel.)

Series [1] concerns IntI1 (IntI1Y312F), MBP fusion.
In series [2] the test system is IntI1A.
The subject of series [3] is IntI1deltaC.

In series [1], “CATTGCGCATTGCGTAGATCTTTTGTTATAACTTTCGCCTAAGGGGCTGACAACGCACTACCACTAAACTCAAACACAACAACAGCAACCACCGCGGCTCAATGGGACTGGAAACGCCACGCGTTGACAGTCCCTCTTGAGGCGGCCGTTATAACTTTCCATGGCTATATTTCAGCATCATCACATCATCATCATCATCATCACAGGGTAGATCATCATCATCAACACGGGACGACAGCAAATGGCACCCTTCTATAAGCTTTTTGTTATAACTTTCGCCTAAGGGGCTGACAACGCACTACCACTAAACTCAAACACAACAACAGCAACCACCGCGGCTCAATGGGACTGGAAACGCCACGCGTTGACAGTCCCTCTTGAGGCGGCCGTTATAACTTTCTCGAGGGTATAGCATTCTAG / CCCTGTGATGATGATGATGATGATGTGATGATGCTGAAATATAGCCATGGACGCAGATCTACGCAATGCGCAATG / CTAGAATGCTATACCCTCGAGCGCAAGCTTATAGAAGGGTGCCATTTGCTGTCGTCCCGTGTTGATGATGATGATC [double-attCVCRinv + staples]” gave a K half of 135 nM. Still for that read-out and setting: then “CATTGCGCATTGCGTAGATCTTTTGTTATAACGCCCGCCTAAGGGGCTGACAACGCACTACCACTAAACTCAAACACAACAACAGCAACCACCGCGGCTCAATGGGACTGGAAACGCCACGCGTTGACAGTCCCTCTTGAGGCGTTTGTTATAACTTTCCATGGCTATATTTCAGCATCATCACATCATCATCATCATCATCACAGGGTAGATCATCATCATCAACACGGGACGACAGCAAATGGCACCCTTCTATAAGCTTTTTGTTATAACGCCCGCCTAAGGGGCTGACAACGCACTACCACTAAACTCAAACACAACAACAGCAACCACCGCGGCTCAATGGGACTGGAAACGCCACGCGTTGACAGTCCCTCTTGAGGCGTTTGTTATAACTTTCTCGAGGGTATAGCATTCTAG / CCCTGTGATGATGATGATGATGATGTGATGATGCTGAAATATAGCCATGGACGCAGATCTACGCAATGCGCAATG / CTAGAATGCTATACCCTCGAGCGCAAGCTTATAGAAGGGTGCCATTTGCTGTCGTCCCGTGTTGATGATGATGATC [double-attCVCR2/1 + staples]”, with 353 nM.

As for “CATTGCGCATTGCGTAGATCTTTTATGTCTAACAATTCATTCAAGCCGACGCCGCTTCGCGGCGCGGCTTAATTCAAGCGTTAGACATTTTCCATGGCTATATTTCAGCATCATCACATCATCATCATCATCATCACAGGGTAGATCATCATCATCAACACGGGACGACAGCAAATGGCACCCTTCTATAAGCTTTTTATGTCTAACAATTCATTCAAGCCGACGCCGCTTCGCGGCGCGGCTTAATTCAAGCGTTAGACATTTTCTCGAGGGTATAGCATTCTAG / CCCTGTGATGATGATGATGATGATGTGATGATGCTGAAATATAGCCATGGACGCAGATCTACGCAATGCGCAATG / CTAGAATGCTATACCCTCGAGCGCAAGCTTATAGAAGGGTGCCATTTGCTGTCGTCCCGTGTTGATGATGATGATC [double-attCaadA7ts + staples]”, the binding signal in series [1] was 7 % bound. “CATTGCGCATTGCGTAGATCTTTTGAGTAACCGTTTTGAGTCGAACCCAACGATCCGTTGGTGTTCGAGCTCATCTGTGTTACTCTTTCCATGGCTATATTTCAGCATCATCACATCATCATCATCATCATCACAGGGTAGATCATCATCATCAACACGGGACGACAGCAAATGGCACCCTTCTATAAGCTTTTTGAGTAACCGTTTTGAGTCGAACCCAACGATCCGTTGGTGTTCGAGCTCATCTGTGTTACTCTTTCTCGAGGGTATAGCATTCTAG / CCCTGTGATGATGATGATGATGATGTGATGATGCTGAAATATAGCCATGGACGCAGATCTACGCAATGCGCAATG / CTAGAATGCTATACCCTCGAGCGCAAGCTTATAGAAGGGTGCCATTTGCTGTCGTCCCGTGTTGATGATGATGATC [double-attCL2 + staples]”: the K half in series [1] was 357 nM. As to “CATTGCGCATTGCGTAGATCTTTTATGTCTAACGCTTGAATTAAGCCGCGCCGCGAAGCGGCGTCGGCTTGAATGAATTGTTAGACATTTTCCATGGCTATATTTCAGCATCATCACATCATCATCATCATCATCACAGGGTAGATCATCATCATCAACACGGGACGACAGCAAATGGCACCCTTCTATAAGCTTTTTATGTCTAACGCTTGAATTAAGCCGCGCCGCGAAGCGGCGTCGGCTTGAATGAATTGTTAGACATTTTCTCGAGGGTATAGCATTCTAG / CCCTGTGATGATGATGATGATGATGTGATGATGCTGAAATATAGCCATGGACGCAGATCTACGCAATGCGCAATG / CTAGAATGCTATACCCTCGAGCGCAAGCTTATAGAAGGGTGCCATTTGCTGTCGTCCCGTGTTGATGATGATGATC [double-attCaadA7bs + staples]”, the K half in series [1] amounted to 153 nM; in series [2], 100 nM; in series [3] it was 180 nM.

These data come from article PMC11641012.
